From patent publication US20180155407A1 (Sanofi, published 2018) come the findings set out here.

Numbered stars: 1 amine (or outer) side, 2 acyl side, 3 side chain; on linkers, the order of the positions; unused ones are H or OH. Square brackets hold non-standard residues; d marks the D form. Side chains are listed from the residue outwards. Ends that are not written are not given here. * marks the point of attachment. γGlu = O=C(O)[C@H](CCC(=O)[*:2])N[*:1]; Palmitoyl = CCCCCCCCCCCCCCCC(=O)*; gAAA = not defined here; AEEA = NCCOCCOCC(=O)O; Aib = CC(C)(N)C(=O)O Some results are limits rather than exact numbers.

Assay in all cases: cell-based or functional assay
The target in assay [1] is human glucagon receptor (human) (UniProt P47871).
For assay [2], the target named is human GLP-1 receptor (human) (UniProt P43220).
The target of assay [3] is human GLP-1 receptor (human, UniProt P43220 24-463).
Assay [4] has as its target human glucagon receptor (human, UniProt P47871 26-477).
Assay [5] has as its target T1, human GIP receptor (human, UniProt P48546 22-466).
T1 sequence (looked up): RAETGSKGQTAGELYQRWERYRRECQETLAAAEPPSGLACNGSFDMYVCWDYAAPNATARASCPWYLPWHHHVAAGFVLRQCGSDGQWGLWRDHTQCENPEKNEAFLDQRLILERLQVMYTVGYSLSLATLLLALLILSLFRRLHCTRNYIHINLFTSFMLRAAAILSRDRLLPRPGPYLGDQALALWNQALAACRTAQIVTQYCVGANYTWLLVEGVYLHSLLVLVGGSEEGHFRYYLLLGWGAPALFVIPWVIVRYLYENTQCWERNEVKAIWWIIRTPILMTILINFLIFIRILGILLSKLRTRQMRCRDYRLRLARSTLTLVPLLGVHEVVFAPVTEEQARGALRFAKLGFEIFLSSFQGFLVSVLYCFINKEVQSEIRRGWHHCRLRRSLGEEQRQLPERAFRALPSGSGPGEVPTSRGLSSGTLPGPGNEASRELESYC

human glucagon receptor, sequence (P47871 26-477): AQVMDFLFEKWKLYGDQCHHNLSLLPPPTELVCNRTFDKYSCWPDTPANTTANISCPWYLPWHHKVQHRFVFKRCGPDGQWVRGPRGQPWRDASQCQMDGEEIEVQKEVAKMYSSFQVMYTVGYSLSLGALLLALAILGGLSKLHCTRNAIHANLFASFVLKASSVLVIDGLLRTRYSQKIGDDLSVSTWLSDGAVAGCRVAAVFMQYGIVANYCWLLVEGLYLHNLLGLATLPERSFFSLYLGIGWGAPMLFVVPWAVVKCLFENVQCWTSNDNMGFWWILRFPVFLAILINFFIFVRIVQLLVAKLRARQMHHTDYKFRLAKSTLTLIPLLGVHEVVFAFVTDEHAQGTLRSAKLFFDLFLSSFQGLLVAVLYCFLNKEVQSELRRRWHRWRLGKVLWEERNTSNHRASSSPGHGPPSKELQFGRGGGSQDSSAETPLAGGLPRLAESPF
human glucagon receptor (human), sequence (P47871 26-477): as above
human GLP-1 receptor (human), sequence (P43220 24-463): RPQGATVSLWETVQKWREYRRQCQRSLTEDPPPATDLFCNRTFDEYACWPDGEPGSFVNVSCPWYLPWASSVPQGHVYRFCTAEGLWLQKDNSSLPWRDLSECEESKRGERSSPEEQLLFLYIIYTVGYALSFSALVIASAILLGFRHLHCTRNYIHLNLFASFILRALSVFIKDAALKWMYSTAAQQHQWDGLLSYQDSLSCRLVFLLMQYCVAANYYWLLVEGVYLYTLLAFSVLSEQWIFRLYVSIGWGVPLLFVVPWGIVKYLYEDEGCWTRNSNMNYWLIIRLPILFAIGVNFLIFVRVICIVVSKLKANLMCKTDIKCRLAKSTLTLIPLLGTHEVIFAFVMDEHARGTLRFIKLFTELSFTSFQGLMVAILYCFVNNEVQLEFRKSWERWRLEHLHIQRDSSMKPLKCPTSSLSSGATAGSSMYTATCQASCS

For exendin-4 (peptide), the EC50 hGlucagon R [pM] (cAMP formation) in assay [1] was greater than 1e+07 pM. In assay [2], this molecule showed an EC50 hGLP-1R [pM] (cAMP formation) of 0.4 pM.

As for H[Aib]QGTFTSDLSKLK([γGlu-AEEA-gAAA-Palmitoyl])EEQRQ[Aib]EFIEWLKAGGHPS[Aib]KPPPK-NH2 (reading uncertain) [SEQ ID NO: 22], the “EC50 hGLP-1R (cAMP formation)” value in assay [3] worked out at 2.1 pM. Besides, the “EC50 hGlucagon R (cAMP formation)” value in assay [4] was found to be 108 pM. Besides, the “EC50 hGIP R (cAMP formation)” value in assay [5] was 6 pM.

Consider H[Aib]QGTFTSDLSKLK([γGlu-AEEA-gAAA-Palmitoyl])EKQRQ[Aib]EFIEWLKA[dA]GHPS[Aib]KPPPK-NH2 (reading uncertain) [SEQ ID NO: 21], for which the “EC50 hGLP-1R (cAMP formation)” value in assay [3] worked out at 4.2 pM. In addition, the “EC50 hGlucagon R (cAMP formation)” value in assay [4] was determined as 69.9 pM. The “EC50 hGIP R (cAMP formation)” value in assay [5] was determined as 24.6 pM.

B1: SEQ ID NO: 7 (peptide)
peptide: H[Aib]QGTFTSDLSKLK([γGlu-γGlu-Palmitoyl])EKQRQ[Aib]EFIEWLKA[dA]GPPS[Aib]KPPPK-NH2
modifications: N-terminus assumed
SMILES: CCCCCCCCCCCCCCCC(=O)N[C@@H](CCC(=O)N[C@@H](CCC(=O)NCCCC[C@H](NC(=O)[C@H](CC(C)C)NC(=O)[C@H](CCCCN)NC(=O)[C@H](CO)NC(=O)[C@H](CC(C)C)NC(=O)[C@H](CC(=O)O)NC(=O)[C@H](CO)NC(=O)[C@@H](NC(=O)[C@H](Cc1ccccc1)NC(=O)[C@@H](NC(=O)CNC(=O)[C@H](CCC(N)=O)NC(=O)C(C)(C)NC(=O)[C@@H](N)Cc1c[nH]cn1)[C@@H](C)O)[C@@H](C)O)C(=O)N[C@@H](CCC(=O)O)C(=O)N[C@@H](CCCCN)C(=O)N[C@@H](CCC(N)=O)C(=O)N[C@@H](CCCNC(=N)N)C(=O)N[C@@H](CCC(N)=O)C(=O)NC(C)(C)C(=O)N[C@@H](CCC(=O)O)C(=O)N[C@@H](Cc1ccccc1)C(=O)N[C@H](C(=O)N[C@@H](CCC(=O)O)C(=O)N[C@@H](Cc1c[nH]c2ccccc12)C(=O)N[C@@H](CC(C)C)C(=O)N[C@@H](CCCCN)C(=O)N[C@@H](C)C(=O)N[C@H](C)C(=O)NCC(=O)N1CCC[C@H]1C(=O)N1CCC[C@H]1C(=O)N[C@@H](CO)C(=O)NC(C)(C)C(=O)N[C@@H](CCCCN)C(=O)N1CCC[C@H]1C(=O)N1CCC[C@H]1C(=O)N1CCC[C@H]1C(=O)N[C@@H](CCCCN)C(N)=O)[C@@H](C)CC)C(=O)O)C(=O)O
For B1, the “EC50 hGLP-1R (cAMP formation)” value in assay [3] came to 4 pM. The “EC50 hGlucagon R (cAMP formation)” value in assay [4] came out at 21.8 pM. Moreover, in assay [5], the “EC50 hGIP R (cAMP formation)” value was 14.2 pM.

B2: SEQ ID NO: 19 (peptide)
peptide: H[Aib]QGTFTSDLSKLK([γGlu-γGlu-AEEA-Palmitoyl])EEQRQ[Aib]EFIEWLKA[dA]GHPS[Aib]KPPPK-NH2
modifications: N-terminus assumed
SMILES: CCCCCCCCCCCCCCCC(=O)NCCOCCOCC(=O)N[C@@H](CCC(=O)N[C@@H](CCC(=O)NCCCC[C@H](NC(=O)[C@H](CC(C)C)NC(=O)[C@H](CCCCN)NC(=O)[C@H](CO)NC(=O)[C@H](CC(C)C)NC(=O)[C@H](CC(=O)O)NC(=O)[C@H](CO)NC(=O)[C@@H](NC(=O)[C@H](Cc1ccccc1)NC(=O)[C@@H](NC(=O)CNC(=O)[C@H](CCC(N)=O)NC(=O)C(C)(C)NC(=O)[C@@H](N)Cc1c[nH]cn1)[C@@H](C)O)[C@@H](C)O)C(=O)N[C@@H](CCC(=O)O)C(=O)N[C@@H](CCC(=O)O)C(=O)N[C@@H](CCC(N)=O)C(=O)N[C@@H](CCCNC(=N)N)C(=O)N[C@@H](CCC(N)=O)C(=O)NC(C)(C)C(=O)N[C@@H](CCC(=O)O)C(=O)N[C@@H](Cc1ccccc1)C(=O)N[C@H](C(=O)N[C@@H](CCC(=O)O)C(=O)N[C@@H](Cc1c[nH]c2ccccc12)C(=O)N[C@@H](CC(C)C)C(=O)N[C@@H](CCCCN)C(=O)N[C@@H](C)C(=O)N[C@H](C)C(=O)NCC(=O)N[C@@H](Cc1c[nH]cn1)C(=O)N1CCC[C@H]1C(=O)N[C@@H](CO)C(=O)NC(C)(C)C(=O)N[C@@H](CCCCN)C(=O)N1CCC[C@H]1C(=O)N1CCC[C@H]1C(=O)N1CCC[C@H]1C(=O)N[C@@H](CCCCN)C(N)=O)[C@@H](C)CC)C(=O)O)C(=O)O
With B2, the “EC50 hGLP-1R (cAMP formation)” value in assay [3] turned out to be 1.9 pM. Besides, the “EC50 hGlucagon R (cAMP formation)” value in assay [4] is 52.2 pM. Moreover, the “EC50 hGIP R (cAMP formation)” value in assay [5] was 7.9 pM.

B3: SEQ ID NO: 18 (peptide)
peptide: H[Aib]QGTFTSDLSKLK([γGlu-γGlu-AEEA-Palmitoyl])EEQRQ[Aib]EFIEWLKAGGHPS[Aib]KPPPK-NH2
modifications: N-terminus assumed
SMILES: CCCCCCCCCCCCCCCC(=O)NCCOCCOCC(=O)N[C@@H](CCC(=O)N[C@@H](CCC(=O)NCCCC[C@H](NC(=O)[C@H](CC(C)C)NC(=O)[C@H](CCCCN)NC(=O)[C@H](CO)NC(=O)[C@H](CC(C)C)NC(=O)[C@H](CC(=O)O)NC(=O)[C@H](CO)NC(=O)[C@@H](NC(=O)[C@H](Cc1ccccc1)NC(=O)[C@@H](NC(=O)CNC(=O)[C@H](CCC(N)=O)NC(=O)C(C)(C)NC(=O)[C@@H](N)Cc1c[nH]cn1)[C@@H](C)O)[C@@H](C)O)C(=O)N[C@@H](CCC(=O)O)C(=O)N[C@@H](CCC(=O)O)C(=O)N[C@@H](CCC(N)=O)C(=O)N[C@@H](CCCNC(=N)N)C(=O)N[C@@H](CCC(N)=O)C(=O)NC(C)(C)C(=O)N[C@@H](CCC(=O)O)C(=O)N[C@@H](Cc1ccccc1)C(=O)N[C@H](C(=O)N[C@@H](CCC(=O)O)C(=O)N[C@@H](Cc1c[nH]c2ccccc12)C(=O)N[C@@H](CC(C)C)C(=O)N[C@@H](CCCCN)C(=O)N[C@@H](C)C(=O)NCC(=O)NCC(=O)N[C@@H](Cc1c[nH]cn1)C(=O)N1CCC[C@H]1C(=O)N[C@@H](CO)C(=O)NC(C)(C)C(=O)N[C@@H](CCCCN)C(=O)N1CCC[C@H]1C(=O)N1CCC[C@H]1C(=O)N1CCC[C@H]1C(=O)N[C@@H](CCCCN)C(N)=O)[C@@H](C)CC)C(=O)O)C(=O)O
In the case of B3, the “EC50 hGLP-1R (cAMP formation)” value in assay [3] worked out at 1.7 pM. For the same molecule, in assay [4], the “EC50 hGlucagon R (cAMP formation)” value is 46.6 pM. In addition, the “EC50 hGIP R (cAMP formation)” value in assay [5] turned out to be 5.6 pM.

Turning to H[Aib]QGTFTSDLSKLK([γGlu-AEEA-gAAA-Palmitoyl])EEQRQ[Aib]EFIEWLKA[dA]GHPS[Aib]KPPPK-NH2 (reading uncertain) [SEQ ID NO: 23], the “EC50 hGLP-1R (cAMP formation)” value in assay [3] worked out at 1 pM. Moreover, the “EC50 hGlucagon R (cAMP formation)” value in assay [4] is 64.3 pM. In assay [5], the “EC50 hGIP R (cAMP formation)” value worked out at 2 pM.

Consider H[Aib]QGTFTSDLSKLK([γGlu-AEEA-gAAA-Palmitoyl])EKQRQ[Aib]EFIEWLKAGGHPS[Aib]KPPPK-NH2 (reading uncertain) [SEQ ID NO: 20], for which, in assay [3], the “EC50 hGLP-1R (cAMP formation)” value came out at 2.4 pM. Besides, in assay [4], the “EC50 hGlucagon R (cAMP formation)” value turned out to be 44 pM. In addition, the “EC50 hGIP R (cAMP formation)” value in assay [5] was 12.7 pM.
